From patent US20230132049A1 (Genmab, published 2023)

Legend:
complement protein C1q = molecular target: T1, complement protein C1q (human, UniProt P02745 23-245; P02746 28-253; P02747 29-245); assay: flow cytometry with FITC anti-C1q: C1q from 20% human serum on activated human CD8+ T cells incubated with the antibody
T1 construct: Native C1q in 20% human serum
Experimental: Activated CD8⁺ T cells were seeded in a round-bottom 96-well plate (30,000 cells/well), pelleted, and resuspended in 30 μL assay medium (RPMI-1640 with 25 mM HEPES and L-glutamine, supplemented with 0.1% [w/v] bovine serum albumin fraction V (BSA; Roche, cat. no. 10735086001) and penicillin/streptomycin).
Human serum (20 μL/well; Sanquin, lot 20L15-02), as a source of C1q, was added to a final concentration of 20%. Cells were incubated on ice for 45 min, followed by two washes with cold GMB FACS buffer and incubation with 50 μL fluorescein isothiocyanate (FITC)-conjugated rabbit anti-human C1q (final concentration of 20 μg/mL (DAKO, cat no. F0254); diluted 1:75 in GMB FACS buffer) in the presence or absence of allophycocyanin-conjugated mouse-anti-CD8 (BD Biosciences, cat. no. 555369; diluted 1:50 in GMB FACS buffer) in the dark at 4° C. for 30 min. […] C1q binding to viable cells (as identified by DAPI exclusion) was analyzed by flow cytometry on an iQue3 Screener (Intellicyt Corporation). Data were analyzed using iQue software (Intellicyt Corporation, ForeCyt® Enterprise Client Edition 6.2 [R3], Version 6.2.652).

human CD30 [1] = molecular target: T2, human CD30 (human, UniProt P28908 19-595); assay: cell-based or functional assay
T2 sequence: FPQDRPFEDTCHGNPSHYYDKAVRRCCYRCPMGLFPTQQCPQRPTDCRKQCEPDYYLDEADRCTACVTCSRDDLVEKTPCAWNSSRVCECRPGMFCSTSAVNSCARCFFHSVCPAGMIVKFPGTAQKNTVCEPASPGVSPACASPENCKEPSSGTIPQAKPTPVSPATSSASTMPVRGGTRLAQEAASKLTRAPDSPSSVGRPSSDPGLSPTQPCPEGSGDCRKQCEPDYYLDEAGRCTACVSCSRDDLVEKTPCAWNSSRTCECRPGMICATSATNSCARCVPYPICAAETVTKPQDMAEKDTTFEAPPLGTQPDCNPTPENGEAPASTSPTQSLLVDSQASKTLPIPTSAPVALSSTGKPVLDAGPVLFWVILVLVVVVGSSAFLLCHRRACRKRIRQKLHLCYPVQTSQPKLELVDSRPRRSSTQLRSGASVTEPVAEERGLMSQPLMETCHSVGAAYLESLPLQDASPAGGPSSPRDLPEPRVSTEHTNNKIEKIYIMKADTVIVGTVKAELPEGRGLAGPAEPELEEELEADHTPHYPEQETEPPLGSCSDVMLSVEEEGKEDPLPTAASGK

human CD30 [2] = molecular target: T2, human CD30; assay: flow cytometry on HEK293 cells transfected with human CD30
human CD30 [3] = molecular target: T2, human CD30; assay: cell-based or functional assay; remark: listed apart in the source

T1 sequence (P02745 23-245 limits assumed, chain 1 of 3): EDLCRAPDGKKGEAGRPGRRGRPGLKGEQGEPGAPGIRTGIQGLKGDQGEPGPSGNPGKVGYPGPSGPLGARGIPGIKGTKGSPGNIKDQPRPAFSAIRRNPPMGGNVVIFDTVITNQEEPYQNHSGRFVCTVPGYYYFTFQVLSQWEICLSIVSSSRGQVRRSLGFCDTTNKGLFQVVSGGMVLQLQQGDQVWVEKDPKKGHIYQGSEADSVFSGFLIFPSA
T1 sequence (P02746 28-253 limits assumed, chain 2 of 3): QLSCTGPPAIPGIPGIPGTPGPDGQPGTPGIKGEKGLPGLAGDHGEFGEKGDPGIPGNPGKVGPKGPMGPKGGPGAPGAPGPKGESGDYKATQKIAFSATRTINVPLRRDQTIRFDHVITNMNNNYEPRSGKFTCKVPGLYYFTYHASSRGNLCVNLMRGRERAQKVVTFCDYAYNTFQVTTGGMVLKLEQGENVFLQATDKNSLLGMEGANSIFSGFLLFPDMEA
T1 sequence (P02747 29-245 limits assumed, chain 3 of 3): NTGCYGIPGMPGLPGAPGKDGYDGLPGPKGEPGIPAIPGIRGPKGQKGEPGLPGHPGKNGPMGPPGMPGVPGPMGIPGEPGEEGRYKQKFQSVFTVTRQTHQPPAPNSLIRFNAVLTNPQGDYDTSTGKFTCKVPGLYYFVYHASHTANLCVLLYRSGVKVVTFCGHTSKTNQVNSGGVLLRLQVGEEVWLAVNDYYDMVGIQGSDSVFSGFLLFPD

B1: bsG1-huCD3-FEAL×CD30-MDX060-FERR (bispecific antibody, human IgG1, kappa, lambda)
heavy 1: not shown
light 1: not shown
heavy 2: QVQLQQWGAGLLKPSETLSLTCAVYGGSFSAYYWSWIRQPPGKGLEWIGDINHGGGTNYNPSLKSRVTISVDTSKNQFSLKLNSVTAADTAVYYCASLTAYWGQGSLVTVSSASTKGPSVFPLAPSSKSTSGGTAALGCLVKDYFPEPVTVSWNSGALTSGVHTFPAVLQSSGLYSLSSVVTVPSSSLGTQTYICNVNHKPSNTKVDKRVEPKSCDKTHTCPPCPAPEFERGPSVFLFPPKPKDTLMISRTPEVTCVVVDVSHEDPEVKFNWYVDGVEVHNAKTKPREEQYNSTYRVVSVLTVLHQDWLNGKEYKCKVSNKALPAPIEKTISKAKGQPREPQVYTLPPSREEMTKNQVSLTCLVKGFYPSDIAVEWESNGQPENNYKTTPPVLDSDGSFFLYSRLTVDKSRWQQGNVFSCSVMHEALHNHYTQKSLSLSPG
light 2: DIQMTQSPTSLSASVGDRVTITCRASQGISSWLTWYQQKPEKAPKSLIYAASSLQSGVPSRFSGSGSGTDFTLTISSLQPEDFATYYCQQYDSYPITFGQGTRLEIKRTVAAPSVFIFPPSDEQLKSGTASVVCLLNNFYPREAKVQWKVDNALQSGNSQESVTEQDSKDSTYSLSSTLTLSKADYEKHKVYACEVTHQGLSSPVTKSFNRGEC
notes: one arm of each; also called bsG1-huCD3×CD30-MDX060
With B1 the binding result (complement protein C1q) was “no binding (tested: 30 µg/mL)”, the “cytotoxicity IC50 (µg/mL) average, Karpas-299 cells” value (human CD30 [1]) was 0.029 µg/mL and the “cytotoxicity maximum lysis (%) average, Karpas-299 cells” value (human CD30 [1]) was 52.3%. For the same binder, the “EC50 (read off the curve)” value (human CD30 [2]) was ~0.09 µg/mL, the “Cytotoxicity, Average IC50 (µg/mL), KI-JK cells” value (human CD30 [3]) was 0.0015 µg/mL and the “Cytotoxicity, Average IC50 (µg/mL), L-428 cells” value (human CD30 [3]) was 0.002 µg/mL.
